Assay results: the DeepSol protein solubility set

Test: soluble on expression in E. coli; label from the status in PepcDB or PDB records

Sequence | soluble on expression in E. coli
MKVISNAEFGGERPLFESHDLRLENVIIRAGESAIKECSNIEAVDCRFEGNYPFWHVHGFVIDRCFFDVGGRSALWYSDNLKMTNTRIDAPKMFREMHDIEIENVEIKDADEVFWRCKNLDIKNLKLHGGTYPFMFSSNIRIDGLESDSKYVFQYVKNVELRNAKITTKDAFWEVENVTIYDSELNGEYLGWHSHNLRLVNCHITGEQPLCYAHDLVLENCTFGPDCDRAFEYSSVQATIKGAIGGVKNPRTGCITAESYGEIILDENIKAPADCKLKLWDEKTCFTD | soluble
GPGSHQIRLLPLTDGFGDASMAGGTSAKIVSPMPGKVSKFLVNSGDFVEKGQALMIVEAMKMEHPVKALQDGQVSFLVKEGEVVGSDHVLATVVQKE | soluble
MPDSDTGSNMAHTMTAAVQQAQGVDNPDDLAAVAMALATGAVKGARGNSGVVLSQVLRGIAHHADSGRIDAHVIQEALRSSLDFVAAAISDPVEGTVITVLRAAAIAATNSEDRSLAAVVSVAAHAARIALAETPSQLQVLRDAKVVDAGGQGLVILLDCLEHVVTGTATSYDPHIIETTEQQQSHGTSGYLEVMCFIAGVEVSHLHDLLAPLGDCLVIGPISDTSATVHIHSTDAATVISTLYATGTITDLHIEVLPETPKVVHPKRIVLALTPPGDLAQLYTDAGALVVVRDGHHFAIARSTNLGQAETPLADGIEIVNELVARSHQSGAQEVILLPNGLLTTQEMAAVERSSQAFKQSITMLPTGSLVRGLAALSVHDPQQSLAVATYAMTEAMSGMRTAVIERAEHAALTPAGACAKGDLLVHLGTEPIAVAEQPEEALRIACRRLLDIGGEQILILARKELALTPDNHSLTGPHTDVEINQYDVDRLGALIEIGVE | not soluble
MSLRTIVFDVDDTLYDQQQPFRNAMTKIFPNVATEDMHELYLRFRHHSDETFPKVLANEWSLDFMRFFRMNETLKDLNYPGISQEEGKIFQQVYEEELDNITMHPEVTKLLDTLQEKEIPMGIITNGPTDHQFKKVKQLNIEKWVPSQNIIISQSTGFQKPEKEIFDLACNQFCMEPEHTLYVGDSYDNDIVGARNGGWHSLWFNHRSRELPSCQPASHLAEVTCFTELCPTVEKLFNLEGHHHHHH | soluble
MRAIYATDLSAASEAAIQNETCLECLGRIGVDTIHLVTVIPSNVHAGMPGMNFSKRREQGLTRYQNVMEDAGFDTETHVVRGTPHRRINGIAEAEKADVTIIGSRGQSPLNNRVIGSTARNLARTTVVPLLVNRIERSTDEPDVLREHLFQRVLYATDFSENATRAFDAFQYLRHATQEATLVHVESPKDATSEADPAEQLASLADTLSQWDIETNVEVRRGDPAEEILDVEAAVTPTTTLVGSRGQSRMRRLLLGSVSEDIIAQATGNVYLVPPPRTA | not soluble
MSLERAVPLAVPLGQTEVFQALQRLHMTIFSQSVSPCGKFLAAGNNYGQIAIFSLSSALSSEAKEESKKPVVTFQAHDGPVYSMVSTDRHLLSAGDGEVKAWLWAEMLKKGCKELWRRQPPYRTSLEVPEINALLLVPKENSLILAGGDCQLHTMDLETGTFTRVLRGHTDYIHCLALRERSPEVLSGGEDGAVRLWDLRTAKEVQTIEVYKHEECSRPHNGRWIGCLATDSDWMVCGGGPALTLWHLRSSTPTTIFPIRAPQKHVTFYQDLILSAGQGRCVNQWQLSGELKAQVPGSSPGLLSLSLNQQPAAPECKVLTAAGNSCRVDVFTNLGYRAFSLSEGHHHHHH | not soluble
MGSSHHHHHHSSGLVPRGSHMASMKQIKKLLVANRGEIAIRIFRAAAELDISTVAIYSNEDKSSLHRYKADESYLVGSDLGPAESYLNIERIIDVAKQANVDAIHPGYGFLSENEQFARRCAEEGIKFIGPHLEHLDMFGDKVKARTTAIKADLPVIPGTDGPIKSYELAKEFAEEAGFPLMIKATSGGGGKGMRIVREESELEDAFHRAKSEAEKSFGNSEVYIERYIDNPKHIEVQVIGDEHGNIVHLFERDCSVQRRHQKVVEVAPSVGLSPTLRQRICDAAIQLMENIKYVNAGTVEFLVSGDEFFFIEVNPRVQVEHTITEMVTGIDIVKTQILVAAGADLFGEEINMPQQKDITTLGYAIQCRITTEDPLNDFMPDTGTIIAYRSSGGFGVRLDAGDGFQGAEISPYYDSLLVKLSTHAISFKQAEEKMVRSLREMRIRGVKTNIPFLINVMKNKKFTSGDYTTKFIEETPELFDIQPSLDRGTKTLEYIGNVTINGFPNVEKRPKPDYELASIPTVSSSKIASFSGTKQLLDEVGPKGVAEWVKKQDDVLLTDTTFRDAHQSLLATRVRTKDMINIASKTADVFKDGFSLEMWGGATFDVAYNFLKENPWERLERLRKAIPNVLFQMLLRASNAVGYKNYPDNVIHKFVQESAKAGIDVFRIFDSLNWVDQMKVANEAVQEAGKISEGTICYTGDILNPERSNIYTLEYYVKLAKELEREGFHILAIKDMAGLLKPKAAYELIGELKSAVDLPIHLHTHDTSGNGLLTYKQAIDAGVDIIDTAVASMSGLTSQPSANSLYYALNGFPRHLRTDIEGMESLSHYWSTVRTYYSDFESDIKSPNTEIYQHEMPGGQYSNLSQQAKSLGLGERFDEVKDMYRRVNFLFGDIVKVTPSSKVVGDMALYMVQNDLDEQSVITDGYKLDFPESVVSFFKGEIGQPVNGFNKDLQAVILKGQEALTARPGEYLEPVDFEKVRELLEEEQQGPVTEQDIISYVLYPKVYEQYIQTRNQYGNLSLLDTPTFFFGMRNGETVEIEIDKGKRLIIKLETISEPDENGNRTIYYAMNGQARRIYIKDENVHTNANVKPKADKSNPSHIGAQMPGSVTEVKVSVGETVKANQPLLITEAMKMETTIQAPFDGVIKQVTVNNGDTIATGDLLIEIEKATD | soluble
MGIMADRLASMVVKATSPDGQIEGELRDRDAVSVAFRGDTYRHYTEYSLGTQLSRLALRMWTGYQRGYDEAVAEATGRPVSRSQETWDANRRRFRQEQAATTVTGMSTDGWIYIQNTGMTSWHVVIRQGTLSKLDEDQFVAELMDAYNTMITEYRFATADLRAKHYGVSFQPRNPPVKELRA | not soluble
RPDPQEIEAQRKAAIEAARQDSIAKAEAELLAARTQGATPDSIKQAAGYNQYGLLAAATAGAEEQVELANGKIALKLSTKGGAIREVLLRDYKTHDGKPLYLFREGESDFNLPLRTVDNRLVDTRDLYFSPISRTDSSVVMRLAVDSASYLDLAYVLLPDDYRLRMTVSGQNLQSLFPANMTMQDLEWSQRIRRQEKSWKFENQYTSIYYKYSGDEVDRLSDSKQEDKKTLEEPLHWVSFKDKYFASVLVCDSYFENNKLAQKTAAAGSDYLKNCTMSATFPLDVRSGTKARFTFFFGPLKYNMLRAYDKGMKAEDNLDLDHLVYLGASIFRWINRYMIIPASTFLQQYFSN | not soluble
MPTFLECPHCQRLYSKHSLLIHEKNCIESMHKILEQEKLKMQNNQKRGRSKSGRRKKIRPAEMTTTERPRTRSLSRYNHENNGLRICFVCGEQYDDQVIEEHKEKCYGDWSILSKSLSVRFHIHQPKTLNTPSIDGTIDVARENMRAVQSSHNCQIVRCRFCNARISLQHAQSHQCVRFEPTIEFYC | soluble
MARPRKPLLSTDRIVETARALVDAEGLAAVSTRRLAAELGVSGPSLYNHFRTKDEILEAVADSVSAQVDLSMFEDGREWRTALHDWAVSYRTALRDHPNIVPVLAHGPGRRPAALHLADAVYGAMVRAGWPAAQATSIGALMRYFVMGSALGSFAGGFVDDAGAYDPADYPHLQQAHLLAEQQEKIDERAFETGLTALLDGLAQQYAQVAQGV | not soluble
MSLRVAVGMSGGVDSSVTALLLKEQGHDVIRVTLRFHTVEACEVNETHNVCCSPKDVQDASRVAKRLGIPHLVFSWEEIFKSKVIDYFVEEYKRGRTPNPCALCNREVKTGFFARYLKQVADIDKLATGHYAKIEEDKKYGLVIKRPKDRKRDQTYFLSLVRREDLELLTFPLGAYTKEEVREIAKRYGLEVAQKRDSQEVCFLMGKSPGEYLEGILGKQRGLIKHVSGKVLGEHEGVYRYTIGQRRGLGISYGKPVYVIDIDAKTNTLIVGEEEYLYNDKLLVKEINFHVPLEKWENVSAQIRYRHKPVPVERIEKTEEGFLVKFKEDVRGITPGQVVAFYDGDVLLGGGIIEESVKEGHHHHHH | soluble
MGSSHHHHHHSSGRENLYFQGHMSKPIVMERGVKYRDADKMALIPVKNVATEREALLRKPEWMKIKLPADSTRIQGIKAAMRKNGLHSVCEEASCPNLAECFNHGTATFMILGAICTRRCPFCDVAHGRPVAPDANEPVKLAQTIADMALRYVVITSVDRDDLRDGGAQHFADCITAIREKSPQIKIETLVPDFRGRMDRALDILTATPPDVFNHNLENVPRIYRQVRPGADYNWSLKLLERFKEAHPEIPTKSGLMVGLGETNEEIIEVMRDLRRHGVTMLTLGQYLQPSRHHLPVQRYVSPDEFDEMKAEALAMGFTHAACGPFVRSSYHADLQAKGMEVK | soluble
MFSLSFPSSSSALLPSLVAFDSSRRLSLQPKKLNRLQSHLFSPQHLSFSQSNVSRYRAFCVSSSSPPEGTVSVVDFHEKDWSFLESMEIDSTEHTQKIERIIKAGELSESSRVLVSISSETFVDRLVESSPSQLLLIVHDSLFTLACIKEKYDKVKCWQGEMIYVPEKWSPLDAVFLYFLPALPFDLDELFKTLSQRCSSGARVVISHPQGRLGLEQQRKEFSDVVVSDLPDESTLSNVAEKHSFELTQFVDEQGLYLAVLKSSKQ | soluble
MTPSPEASEGPCVSKLRNEPLGALTPYVGVVDGPEVKKSKKIHGGDSAILGTYKMQSRFNRGVLLMVNIMDYPDQNRRRIGAEKDSKSLIHLFQELNFTIFPYGNVNQDQFFKLLTMVTSSSYVQNTECFVMVLMTHGNSVEGKEKVEFRDGSVVDMQKIKDHFQTAKCPYLVNKPKVLMFPFARGDEYDLGHPKNQGNLMEPVYTAQEEKWPDTQTEGIPSPSTNVPSLADTLVCYANTPGYVTHRDLDTGSWYIQKFCQVMADHAHDTDLEDILKKTSEAVGNKRTKKGSMQTGAYDNLGFNKKLYFNPGFFNE | soluble
MHHHHHHSSGVDLGTENLYFQSMVEDHYEMGEELGSGQFAIVRKCRQKGTGKEYAAKFIKKRRLSSSRRGVSREEIEREVNILREIRHPNIITLHDIFENKTDVVLILELVSGGELFDFLAEKESLTEDEATQFLKQILDGVHYLHSKRIAHFDLKPENIMLLDKNVPNPRIKLIDFGIAHKIEAGNEFKNIFGTPEFVAPEIVNYEPLGLEADMWSIGVITYILLSGASPFLGETKQETLTNISAVNYDFDEEYFSNTSELAKDFIRRLLVKDPKRRMTIAQSLEHSWIKAIRRRNVRGEDSG | soluble
MAHHHHHHMDSQGPFLVIPTKRGAVPTLTPAQANAILEPSERILATSVFEAMDFVKPCIEAGMQLSTYCGLSGYKTVLTLRSSFQGLHASASSSDTAVAGDNERGRAVISFEKWRDVVKATRPTFAVAVHESLPLCEPLNKRRRVAATRSETWLANTEEASDLGCTILPSISAGCTHDGGYIDAVPRGENSYEFFQTLQALQLSPKKCTMCVAPSISVLLAAMVSNVSLLECPLPWTLAEKGVALLLPLEEATTTSPEPVVPLLDLNDNVYALDINPIAEGCDCFTCKRHCRAYLHHLLTVQEMNSDILLVMHNLAQVVLLVRAYRCASAPTREALVSRVASAL | not soluble
MSLGRHSDNSLQESANHTVLLTSPTNTIPKDSRQRSQQFMQNLQDEICTALEQLDGKASFHQDHWERAEGGEGRTRVIREGRVFEQGGVNFSAVWGNSLPASILAQRPEAAGHEFFATGTSMVLHPRNPYVPTVHLNYRYFEAGPIWWFGGGADLTPYYAFKEDAVHFHQTLKNACDVHNPEYYPTFKRWCDEYFYLRHREEQRGIGGIFFDYQDASGKLYVESQTDSSVAIYSQKVGNVARNWEDIFAFVQSCGQAFLPAYLPIVERRQGIEYGDRQRNFQLYRRGRYVEFNLVYDRGTVFGLQTKGRTESILMSLPPLARWEYCYEPEAGSPEAELTEVFLQPRDWVEGHHHHHH | not soluble
